From publication PMC2872917

What was measured:
[1] = target: Dam1 complex (S. cerevisiae) (UniProt P53267); test: velocity sedimentation
microtubules = microtubules (UniProt Q6B856); test: bead-microtubule-binding assay

Row | Substance | stoichiometry N [1] | density of microtubule-attached beads (beads × mm^−2) (microtubules)
1 | Dam1 complex (from UniProt P53267 1-343; Q12248 1-94) | 2 | –
2 | Ndc80 complex (from UniProt P40460 1-691; P33895 1-451) | – | 7800
